Literature values, collected in PMC9987997.

Columns and labels:
[1] = target: Scribble PDZ4 (Homo sapiens) (UniProt Q14160); test: ITC
[2] = target: Scribble PDZ1 (Homo sapiens) (UniProt Q14160); test: ITC

NS1 (ESEV PBM) PBM (from UniProt Q8QPI8)
Kd [1]: 12.2 µM
Kd [2]: 21.4 µM
